Consider two molecules from patent US8114412B2, “T. cruzi-derived neurotrophic agents and methods of use therefor” (priority 1999, dated 2012).

The subject of series [1] is human bladder carcinoma T-24 cell line. Put plainly: IL-6 secretion by T-24 carcinoma cells (ELISA). It counts as cell-based. The conditions noted are these: 24 hours culture. As to the method:
(§1) Primary cultures of human intestinal microvascular endothelial cells (HIMEC) isolated from normal jejunal mucosa/submucosal tissue were prepared as described (Strong et al., Gastroenterology 114: 1244-1256 (1998)). The HIMEC were cultured in fibronectin-coated plasticware in MCDB medium (Sigma) supplemented with 20% FBS, 90 μg/ml heparin and 50 μg/ml endothelial cell growth factor (Sigma). T-24 cells (ATCC Accession No. HTB-4) were cultured in M199 medium supplemented with 10% FBS. PBMC were purified by Ficoll-Paque gradient as described (Current Protocols in Immunology, pp 7.1.1-7.1.2). Vero cells (ATCC Accession No. CCL-81) were grown in RPMI medium with 5% Nu serum and infected with the Silvio X-10/4 of T. cruzi as described previously (Chuenkova et al., J. Exp. Med. 181: 1693-1703, (1995)).
(§2) Endothelial cells and T-24 cells were plated on 24-well plates at a density of 1×10^3 cells/well, while peripheral blood mononuclear cells (PBMC) were plated in the similar wells at 1×10^6/well. Triplicat cultures of cells were incubated test agents for a predetermined amount of time. […] Cytokines and chemokines released in the culture supernatants were measured by ELISA assay following the instructions of the manufacturer (Endogen). The cytokines tested were IL-1β, IL-4, IL-8, IL-10, IL-12, IFN-γ, TNF-α, and the chemokines RANTES and MCP-1. Negative controls were cells incubated in medium containing polymixin B at 10 μg/ml, and positive controls were cells incubated with bacterial LPS at the low ng/ml range (for PBMC or HIMEC) or in the μg/ml range for carcinoma T-24 cells. In some experiments, IL-1β, or TNFα were used as positive control for cytokine release.
(ELISA stands for enzyme-linked immunosorbent assay.)

Series [2] has as its system peripheral blood mononuclear cells (PBMC). Description: IL-6 secretion by PBMC (ELISA). It counts as cell-based, human. Also noted: IL-6 secretion by PBMC: dose or concentration left out as unconfirmed. The conditions noted are these: 24 hrs culture. On the procedure: as §1, §2
TR peptides (Table 2) were synthesized at the Tufts Synthesis Facility (Boston, Mass.). Each peptide was purified by HPLC, and the number of amino acids and molecular weight of each peptide verified by mass spectrometry. Peptides were dissolved in growth medium (10% FCS in RPMI) and added at various concentrations to 1×10^6 PBMC/well in 24-well plates. After 24 hrs, IL-6 was assayed by ELISA in the conditioned supernatants.

Another series can be described thus: Trans-sialidase assay. Format: biochemical. On the procedure: The trans-sialidase assay was performed as described (Scudder et al., J. Biol. Chem. 268:9886-9891 (1993)) with slight modifications. Various amounts of intact enzyme or enzyme fragments were added to 50 mM PBS, Ph 7.2, containing 15% fetal calf serum and […] of [^14C]N-acetyllactosamine (4×10^5 dpm), 50 μg BSA and 0.02% NaN3 in a volume of 60 μl. After incubation for a predetermined amount of time at room temperature, the reaction mixture was diluted to 1.0 ml with distilled water and applied to a column containing 1.0 ml Q-Sepharose equilibrated with water. Sialylated product was eluted with 1 M NaCi and quantified by scintillation counting.
TS enzymatic activity was measured by the sialylation of the acceptor ^14C-labeled N-acetyllactosamine on anion exchange resins (Scudder, P. et. al., J. Biol. Chem. 268:9886-9891 (1993)). Recombinant TSA-1, was expressed on insect sf9 cells and purified from serum-free medium by ion exchange chromatography (monoQ) and preparative SDS-PAGE (Wrightsman, R. A. et al., J. Immunol., 153:3148-3154 (1994).

Series [3] concerns PC12 cells. Description: Trophic factor withdrawal-induced apoptosis of PC12 cells (DAPI/TUNEL). It counts as cell-based, rat. The conditions noted are these: serum-free RPMI-1640/0.2% BSA, 17 hours, DAPI or TUNEL. From the text: PC12 cells were obtained from ATCC (Manassas, Va. (Accession No. CRL-1721)) and cultured on collagen-coated dishes in RPMI 1640 supplemented with 10% horse serum and 5% fetal bovine serum (Greene, L. A. and Tishler, A. S., Proc. Natl. Acad. Sci. USA, 73: 2424-2428 (1976)). For differentiation and survival experiments, cells were washed three times in serum-free RPMI/0.2% BSA, plated in the same medium in collagen-coated plastic dishes at 2×10^5/ml, without and with growth factors, TS, recombinant proteins, synthetic peptides, for the time and concentrations indicated in the Figures.
Cell staining with 4,6-diamino-2-phenylindole (DAPI). Cells were fixed with 4% formaldehyde in PBS for 5 minutes, washed with PBS, stained with 10 μg/ml DAPI (Sigma) for 2 minutes, washed with PBS, and visualized under UV light using a fluorescent microscope. About 300-400 cells were examined under the microscope to determine the percentage of apoptotic cells.
Cell DNA nick end labeling (TUNEL) (Gavrieli, Y., et al., J. Cell. Biol. 119: 493-501 (1992)) assay was performed using a kit purchased from Boehringer Mannheim as described by the manufacturer.
(§3) Protection against apoptosis of PC12 cells in serum-free medium containing a test agent (agent N)(e.g., protection induced by TS, TS fragments, NGF or other growth factors), was calculated by the formula: 100%-[(apoptosis(%) of cells kept in RPMI containing test agent N÷apoptosis (%) of cells kept in RPMI)×100%]. Testing the effect of wortmannin (Sigma) and LY294002 (Sigma) in inhibiting the neuroprotection of TS was performed following the protocol described by others (Yao and Cooper, Science, 267:2003-2006 (1995); D'Mello et al., J. Neurosci 17:1548-1560 (1997)). In brief, PC12 cells were switched from growth medium to RPMI without and with TS or various other growth factors. After 24 hr, wortmannin and LY294002 were added to the cultures. After another 24 hrs, cells were examined for apoptosis by the DAPI assay, as above.

Series [4] has as its system PC12 cells. Put plainly: Reversal of TS-induced neuroprotection by PI-3 kinase inhibitors in PC12 cells. Format: cell-based, rat. The conditions noted are these: RPMI+CNTF 50 ng/ml; similar to RPMI alone. As to the method: as §3
The conditions of series [5]: Martin et al. 1996; cited from earlier work.
The next series deals with Bcl-2 mRNA in PC12 cells. Put plainly: RT-PCR of Bcl-2 gene transcripts in PC12 cells. Format: cell-based, rat. The conditions noted are these: TS 2.5 ng/ml, CNTF 50 ng/ml, alone or combined, 17 hours. As to the method:
Total RNA was extracted from PC12 cells by the acid guanidinum isothiocyanate method (Chomchinski, P., et al., Biotechniques 15: 532-535 (1993)) using TRI-reagent (Molecular Research Center, Inc.). cDNA synthesis was performed according to the instruction of the manufacturer (Gibco-BRL). Reverse transcription reactions were carried out for 50 minutes at 42° C. and were heated to 70° C. for 15 minutes to terminate the reaction using a MiniCycler (MJ Research). Samples were cooled to 4° C. and stored at −20° C. until use.
PCR reactions were performed in 50 μl containing 1.5 μl of template DNA (corresponding to cDNA synthesized from 100 ng of total RNA), 1×PCR buffer, 100 μM of deoxynucleotides, 2.5 mM MgCl2, 10 mM DTT, 10 pM of Bcl-2 primers, and 2 U of Taq DNA polymerase (Gibco-BRL). The synthetic DNA primers for the rat Bcl-2 were: 5′-[…]-3′ (SEQ ID NO:8) and 5′-[…]-3′(SEQ ID NO:9) to give a PCR product of 566 bp. The sequences for synthetic GAPDH DNA primers (Wong, H., et al., Anal. Biochem. 223: 251-258 (1994)) were: 5′-[…]-3′ (SEQ ID NO:10) and 5′-[…]-3′ (SEQ ID NO:11) giving a PCR produce of 306 base pairs. Amplifications were carried out in MiniCycler (MJ Research) using following conditions: 98° C. for 5 minutes (initial heat denaturation), 3 cycles of 94° C. for 1 minute, 63° C. for 1 minute, 72° C. for 1.5 minutes; 3 cycles of 94° C. for 1 minutes, 60° C. for 1 minute, 72° C. for 1.5 minutes, followed by 72° C. for 10 minutes. Primers for GAPDH (10 pM) were added at cycle 7 by the “primer-dropping” method. Aliquots of PCR reaction products were separated by electrophoresis in 2% agarose gels (Ultrapure, Gibco-BRL), containing 0.2 μg/ml ethidium bromide. Gels were analyzed by computerized densitometric scanning using Gel doc 1000 (Bio Rad) and Molecular Analyst Software, version 2.1.

B1: TS-154: recombinant catalytically active trans-sialidase construct from clone 154 with 5 tandem repeat units (protein, listed as Trypanosoma cruzi)
chain: KKKQVFSKIFYSEDEGKTWKFGEGRSDFGCSEPVALEWEGKLIINTRVDYRRRLVYESSDMGNSWVEAVGTLSRVWGPSPKSNQPGSQSSFTAVTIEGMRVMLFTHPLNFKGRWLRDRLNLWLTDNQRIYNVGQVSIGDENSAYSSVLYKDDKLYCLHEINSNEVYSLVFARLVGELRIIKSVLQSWKNWDSHLSSICTP
As for B1, in series [1], the “IL-6 secretion by T-24 cells” value is “as powerful as enzymatically-inactive TS-H32 in stimulating IL-6 secretion”. For the same molecule, the “IL-6 secretion by PBMC” value in series [2] was “as powerful as enzymatically-inactive TS-H32 in stimulating IL-6 secretion”. Moreover, the trans-sialidase enzymatic activity result in “Trans-sialidase assay” is recorded as “enzymatically-active”.

B2: CNTF: human ciliary neurotrophic factor; recombinant human and rat CNTF (protein, UniProt P26441 1-200, looked up)
Ciliary neurotrophic factor: MAFTEHSPLTPHRRDLCSRSIWLARKIRSDLTALTESYVKHQGLNKNINLDSADGMPVASTDQWSELTEAERLQENLQAYRTFHVLLARLLEDQQVHFTPTEGDFHQAIHTLLLQVAAFAYQIEELMILLEYKIPRNEADGMPINVGDGGLFEKKLWGLKVLQELSQWTVRSIHDLRFISSHQTGIPARGSHYIANNKKM
For B2, the “protection of PC12 cells from apoptosis induced by trophic factor withdrawal” value in the series with PC12 cells [3] is “little, if any, protection”. Further, the “viability of PC12 cells” value in the series on PC12 cells [4] was roughly 33%. Moreover, in series [5], the “undesirable side effects of administration” value was “muscle atrophy, cachexia and anorexia”. In the series on Bcl-2 mRNA in PC12 cells, the “bcl-2 gene expression in PC12 cells” value is given as “did not induce bcl-2 gene expression individually”.
